Experimental findings from patent US6653533, “Nucleic acids encoding proteins with pathogen resistance activity and plants transformed therewith” (Purdue Research Foundation) are described below.

For data set [1], the target named is T1, Pti5 (Lycopersicon esculentum, UniProt O04681 SEQ:1-161). The data set can be described thus: EMSA; 4 fmol probe, poly(dA-dT), 25 mM Hepes pH 7.5, 40 mM KCl, room temperature. The settings on record: tags: GST fusion (pGEX), E. coli PR745; label: 32P end label. On the procedure: (§1) The wild type gln2 PR-box 2× ([…] […])(SEQ ID NO:17) and mutated PR-box 2× ([…] […]) (SEQ ID NO:18) were end-labeled by 32P as described by Ausubel, F. M., Brent, R., Kingston, R. E., Moore, D. D., Seidman, J. G., Smith, J. A., and Struhl, K. (1994). Current Protocols in Molecular Biology. (New York: Greene Publish Associates/John Wiley and Sons). Four fmol of probe was mixed with each of the purified GST-fusion proteins in a buffer containing 2 μg poly(dA-dT) (dA-dT), 25 mM Hepes (PH7.5), 40 mM KCl, 0.1 mM EDTA, 10% glycerol, and 1 mM DTT, incubated at room temperature for 15 minutes, and electrophoresed on a 4% polyacrylamide gel in 0.25×TBE buffer. Ohme-Takagi, M. and Shinshi, H. (1995). Ethylene-inducible DNA-binding proteins that interact with an ethylene-responsive element. Plant Cell 7, 173–182. The gel was subsequently dried and exposed to x-ray film. […] In contrast to GST-Pti5 and GST-Pti6, neither GST-Pti1 nor GST itself bound to the PR-box.

Data set [2] has as its target T2, Pti6 (Lycopersicon esculentum, UniProt O04682 SEQ:1-248). Described as above. Conditions: tags: GST fusion (pGEX), E. coli PR745; label: 32P end label. As for the experimental part: as §1
The target of the next data set is GST (UniProt P08515 P08515:1-218). The data set can be described thus: EMSA; negative control protein. Conditions: tags: GST alone; label: 32P end label. On the procedure:
as §1
Background: In EMSA bound probe runs differently from free probe, usually more slowly.

The target in another data set is T3, Pti1 (Lycopersicon esculentum, UniProt Q41328 Q41328:1-354).
T3 sequence: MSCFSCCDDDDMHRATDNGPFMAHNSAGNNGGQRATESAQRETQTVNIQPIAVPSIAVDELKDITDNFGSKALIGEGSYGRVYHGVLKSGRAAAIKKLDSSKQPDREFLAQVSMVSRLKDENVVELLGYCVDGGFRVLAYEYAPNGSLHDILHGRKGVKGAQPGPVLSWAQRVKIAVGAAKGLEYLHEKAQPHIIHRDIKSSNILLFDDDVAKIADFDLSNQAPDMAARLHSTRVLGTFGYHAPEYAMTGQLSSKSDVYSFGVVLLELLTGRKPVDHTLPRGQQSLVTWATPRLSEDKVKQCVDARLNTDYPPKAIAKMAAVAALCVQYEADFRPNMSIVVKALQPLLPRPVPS
The data set can be described thus: EMSA; negative control protein. Conditions: tags: GST fusion; label: 32P end label. As for the experimental part:
as §1

Data set [3] has as its target T1, Pti5. The data set can be described thus: EMSA; no binding detected; same buffer. Conditions: tags: GST fusion (pGEX), E. coli PR745; label: 32P end label. As for the experimental part: as §1
The target of data set [4] is T2, Pti6. The data set can be described thus: EMSA; no binding detected; same buffer. The settings on record: tags: GST fusion (pGEX), E. coli PR745; label: 32P end label. As for the experimental part:
as §1

T2 sequence (O04682 whole entry, the tested form may be a part): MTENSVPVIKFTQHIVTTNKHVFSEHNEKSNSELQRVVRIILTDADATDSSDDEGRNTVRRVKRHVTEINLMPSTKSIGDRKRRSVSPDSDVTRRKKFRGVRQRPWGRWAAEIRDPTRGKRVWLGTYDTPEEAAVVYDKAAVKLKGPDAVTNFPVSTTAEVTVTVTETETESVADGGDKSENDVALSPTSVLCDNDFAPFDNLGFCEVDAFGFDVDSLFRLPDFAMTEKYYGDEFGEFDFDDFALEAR
T1 sequence (O04681 other isoform, or with tags, fused parts or gaps): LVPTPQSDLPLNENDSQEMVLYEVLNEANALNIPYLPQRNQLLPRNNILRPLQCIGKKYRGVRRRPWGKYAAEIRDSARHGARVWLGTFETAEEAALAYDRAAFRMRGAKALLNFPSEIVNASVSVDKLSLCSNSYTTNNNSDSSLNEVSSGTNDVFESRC
GST, sequence (P08515 whole entry, one chain of several): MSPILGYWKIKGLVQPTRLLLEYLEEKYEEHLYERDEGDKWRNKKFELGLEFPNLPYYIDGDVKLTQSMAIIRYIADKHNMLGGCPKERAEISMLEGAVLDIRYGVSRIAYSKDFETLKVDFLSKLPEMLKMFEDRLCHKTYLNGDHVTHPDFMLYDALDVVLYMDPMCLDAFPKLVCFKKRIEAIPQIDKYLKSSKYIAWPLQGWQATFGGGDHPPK

B1: wild type gln2 PR-box 2x (dsDNA)
DNA 1: CATAAGAGCCGCCACTAAAATAAGACCGATCAAATAAGAGCCGCCAT
DNA 2: ATGGCGGCTCTTATTTGATCGGTCTTATTTTAGTGGCGGCTCTTATG
For B1, the binding result was “binds” with Pti5 [1], “binds” in the data set with Pti6 [2], “no binding” with GST and “no binding” with Pti1.

B2: mutated PR-box 2x (dsDNA)
DNA 1: CATAAGATCCTCCACTAAAATAAGACCGATCAAATAAGATCCTCCAT
DNA 2: ATGGAGGATCTTATTTGATCGGTCTTATTTTAGTGGAGGATCTTATG
For the molecule B2, the binding result with Pti5 [3] and with Pti6 [4] was “no binding” in each case.
